Assay results reported in patent publication US20050282739A1 (PALATIN TECHNOLOGIES, published 2005).
Read-outs that look alike come from different tables or passages of the source. Each block holds one binder with its values, some of them ahead of it. Square brackets hold non-standard residues; d marks the D form. Ends that are not written are not given here. Nle = CCCC[C@H](N)C(=O)O

Experiments:
[1] = biological target: T1, human melanocortin-5 receptor (hMC5-R) (human, UniProt P33032 1-325); test: 125I-NDP-α-MSH competition, hMC5-R membranes
T1 construct: whole, on cells; membranes prepared from hMC5-R cells were used; also called Melanocortin Receptor 5
Description: (§1) The competitive inhibition binding assay was conducted using membranes prepared from hMC3-R, hMC4-R, hMC5-R, and B-16 mouse melanoma cells (containing MC1-R) using 0.4 nM ¹²⁵I-NDP-alpha-MSH (New England Nuclear, Boston, Mass., USA) in 50 mM HEPES buffer containing 1 mM MgCl₂, 2 mM CaCl₂, and 5 mM KCl, at pH 7.2. […] Incubation was for 90 minutes at room temperature, after which the assay mixture was filtered and the membranes washed three times with ice cold buffer. The filter was dried and counted in a gamma counter for remaining radioactivity bound to the membranes. 100% specific binding was defined as the difference in radioactivity (cpm) bound to cell membranes in the absence and presence of 1 μM α-MSH. […] Each assay was conducted in triplicate and the actual mean valves are described.
(§2) The first unnumbered peptide in Table 5 is the parent polypeptide, which is a γ-MSH analog specific for melanocortin receptors. The methods and assays set forth in Example 1 were followed.

[2] = biological target: T2, human melanocortin-3 receptor (hMC3-R) (human, UniProt P41968 1-323); test: 125I-NDP-α-MSH competition, hMC3-R membranes
T2 construct: whole, on cells; membranes prepared from hMC3-R cells were used; also called Melanocortin Receptor 3
Description: as §1, §2

[3] = biological target: T3, melanocortin-1 receptor (MC1-R) of B-16 mouse melanoma cells (mouse, UniProt Q01727 1-315); test: 125I-NDP-α-MSH competition, B-16 membranes
T3 construct: whole, on cells; membranes prepared from the cells were used; also called Melanocortin Receptor 1
Description: as §1, §2

[4] = biological target: T4, human melanocortin-4 receptor (hMC4-R) (human, UniProt P32245 1-332); test: 125I-NDP-α-MSH competition, hMC4-R membranes
T4 construct: whole, on cells; membranes prepared from hMC4-R cells were used; also called Melanocortin Receptor 4
Description: as §1, §2

[5] = biological target: T2, human melanocortin-3 receptor (hMC3-R); test: 125I-NDP-α-MSH competition, hMC3-R membranes; remark: listed apart in the source
Description: as §1

[6] = biological target: T3, melanocortin-1 receptor (MC1-R) of B-16 …; test: 125I-NDP-α-MSH competition, B-16 membranes; remark: listed apart in the source
Description: as §1

[7] = biological target: T1, human melanocortin-5 receptor (hMC5-R); test: 125I-NDP-α-MSH competition, hMC5-R membranes; remark: listed apart in the source
Description: as §1

[8] = biological target: T4, human melanocortin-4 receptor (hMC4-R); test: 125I-NDP-α-MSH competition, hMC4-R membranes; remark: listed apart in the source
Description: as §1

[9] = biological target: T1, human melanocortin-5 receptor (hMC5-R); test: 125I-NDP-α-MSH competition, hMC5-R membranes; remark: listed apart in the source
Description: as §1
(§3) The first unnumbered peptide in Table 3 is the parent polypeptide, which is a Nle³, D-Phe⁶ substituted γ-MSH analog specific for melanocortin receptors. The methods and assays set forth in Example 1 were followed.

[10] = biological target: T3, melanocortin-1 receptor (MC1-R) of B-16 …; test: 125I-NDP-α-MSH competition, B-16 membranes; remark: listed apart in the source
Description: as §1, §3

[11] = biological target: T4, human melanocortin-4 receptor (hMC4-R); test: 125I-NDP-α-MSH competition, hMC4-R membranes; remark: listed apart in the source
Description: as §1, §3

[12] = biological target: T2, human melanocortin-3 receptor (hMC3-R); test: 125I-NDP-α-MSH competition, hMC3-R membranes; remark: listed apart in the source
Description: as §1, §3

T1 sequence (P33032 whole entry): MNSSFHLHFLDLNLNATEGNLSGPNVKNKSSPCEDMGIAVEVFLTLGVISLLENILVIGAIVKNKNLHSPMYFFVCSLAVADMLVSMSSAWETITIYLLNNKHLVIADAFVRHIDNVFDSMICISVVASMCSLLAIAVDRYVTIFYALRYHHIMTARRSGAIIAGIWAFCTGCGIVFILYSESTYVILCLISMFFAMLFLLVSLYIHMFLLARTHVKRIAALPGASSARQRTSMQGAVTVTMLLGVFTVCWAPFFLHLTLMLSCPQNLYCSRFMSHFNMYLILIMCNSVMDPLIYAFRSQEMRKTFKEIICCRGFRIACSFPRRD
T3 sequence (Q01727 whole entry): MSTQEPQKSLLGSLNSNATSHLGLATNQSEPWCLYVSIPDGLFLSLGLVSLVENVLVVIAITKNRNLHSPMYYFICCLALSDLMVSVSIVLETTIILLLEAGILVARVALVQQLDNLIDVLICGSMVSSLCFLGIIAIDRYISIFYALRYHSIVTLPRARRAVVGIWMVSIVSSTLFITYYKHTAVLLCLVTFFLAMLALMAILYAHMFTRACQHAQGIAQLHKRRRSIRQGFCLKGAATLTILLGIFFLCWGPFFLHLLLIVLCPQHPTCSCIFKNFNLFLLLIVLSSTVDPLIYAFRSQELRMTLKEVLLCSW
T4 sequence (P32245 whole entry): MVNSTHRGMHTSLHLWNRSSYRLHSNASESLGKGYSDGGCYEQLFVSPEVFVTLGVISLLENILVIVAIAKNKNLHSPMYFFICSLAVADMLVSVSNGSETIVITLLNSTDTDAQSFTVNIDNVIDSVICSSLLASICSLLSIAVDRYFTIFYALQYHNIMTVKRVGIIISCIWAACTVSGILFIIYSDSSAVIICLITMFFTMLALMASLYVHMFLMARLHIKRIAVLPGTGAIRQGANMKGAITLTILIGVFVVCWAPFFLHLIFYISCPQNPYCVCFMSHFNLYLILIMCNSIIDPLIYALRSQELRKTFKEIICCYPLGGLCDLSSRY
T2 sequence (P41968 whole entry): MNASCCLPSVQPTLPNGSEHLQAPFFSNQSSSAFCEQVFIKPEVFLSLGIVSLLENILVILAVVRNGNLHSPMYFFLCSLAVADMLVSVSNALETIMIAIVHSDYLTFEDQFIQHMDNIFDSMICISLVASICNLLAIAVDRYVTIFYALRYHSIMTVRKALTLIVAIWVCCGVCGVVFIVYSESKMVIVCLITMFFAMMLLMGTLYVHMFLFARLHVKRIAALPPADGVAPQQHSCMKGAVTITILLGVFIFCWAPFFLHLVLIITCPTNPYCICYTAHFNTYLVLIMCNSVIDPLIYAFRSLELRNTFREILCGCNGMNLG

Binder: Ac-SYS[Nle]EHFRWGKGVC-NH2 (not fully specified; also: oxorhenium(V) N3S1 chelate at Cys14) [metallopeptide 1-1]
% Inhibition at 1 µM [5]: 48% | % Inhibition at 1 µM [6]: 95% | % Inhibition at 1 µM [7]: 68% | % Inhibition at 1 µM [8]: 63%

Binder: Ac-SYS[Nle]ECHFRWGKPV-NH2 (also: oxorhenium(V) N3S1 chelate at Cys6) [metallopeptide 1-9]
% Inhibition at 1 µM [5]: 0% | % Inhibition at 1 µM [6]: 74% | % Inhibition at 1 µM [7]: 6%

Binder: Ac-SYS[Nle]EHFRWGKCPV-NH2 (also: oxorhenium(V) N3S1 chelate at Cys12) [metallopeptide 1-3]
% Inhibition at 1 µM [5]: 0% | % Inhibition at 1 µM [6]: 87% | % Inhibition at 1 µM [7]: 12% | % Inhibition at 1 µM [8]: 0%

Binder: Ac-SYS[Nle]EHFRCWGKPV-NH2 (also: oxorhenium(V) N3S1 chelate at Cys9) [metallopeptide 1-6]
% Inhibition at 1 µM [5]: 0% | % Inhibition at 1 µM [6]: 29% | % Inhibition at 1 µM [7]: 0% | % Inhibition at 1 µM [8]: 0%

Binder: Ac-SYS[Nle]EHFRWGKGCV-NH2 (also: oxorhenium(V) N3S1 chelate at Cys13) [metallopeptide 1-2]
% Inhibition at 1 µM [6]: 87% | % Inhibition at 1 µM [7]: 37% | % Inhibition at 1 µM [8]: 0%

Binder: Ac-SYS[Nle]CEHFRWGKPV-NH2 (also: oxorhenium(V) N3S1 chelate at Cys5) [metallopeptide 1-10]
% Inhibition at 1 µM [5]: 0% | % Inhibition at 1 µM [6]: 72% | % Inhibition at 1 µM [7]: 5%

Binder: Ac-SYS[Nle]EHFCRWGKPV-NH2 (also: oxorhenium(V) N3S1 chelate at Cys8) [metallopeptide 1-7]
% Inhibition at 1 µM [5]: 0% | % Inhibition at 1 µM [6]: 68% | % Inhibition at 1 µM [7]: 0% | % Inhibition at 1 µM [8]: 0%

Binder: Ac-SYS[Nle]EHFRWCGKPV-NH2 (also: oxorhenium(V) N3S1 chelate at Cys10) [metallopeptide 1-5]
% Inhibition at 1 µM [5]: 0% | % Inhibition at 1 µM [6]: 57% | % Inhibition at 1 µM [7]: 0% | % Inhibition at 1 µM [8]: 0%

Other lines, results leading:

% Inhibition at 1 µM [1]: 98% | % Inhibition at 1 µM [2]: 92% | % Inhibition at 1 µM [3]: 101% | % Inhibition at 1 µM [4]: 95%
B1: metallopeptide 5-1 (peptide)
peptide: YV[Nle]GH[dF]RWDRC-NH2
modifications: also: oxorhenium(V) N3S1 chelate: C11 SG + backbone N of D9, R10, C11, bridge at 11 via Re(V)=O, other end not in the chain

% Inhibition at 1 µM [9]: 100% | % Inhibition at 1 µM [10]: 99% | % Inhibition at 1 µM [11]: 89% | % Inhibition at 1 µM [12]: 91%
B2: metallopeptide 3-2 (peptide)
peptide: YV[Nle]GH[dF]RWDRCF-NH2
modifications: not fully specified (bridges); printed as Tyr-Val-Nle-Gly-His-D-Phe-Arg-Trp-Asp-Arg-Cys-Phe-NH2; also: oxorhenium(V) N3S1 chelate (backbone N of D9, R10, C11 and C11 S)

% Inhibition at 1 µM [9]: 86% | % Inhibition at 1 µM [10]: 84% | % Inhibition at 1 µM [11]: 80% | % Inhibition at 1 µM [12]: 78%
Binder: YV[Nle]CGH[dF]RWDRF-NH2 (also: Re(V)=O N3S1 chelate via V2 N, Nle3 N, Cys4 N and S (ReOCl3(PPh3)2)) [metallopeptide 3-10]

% Inhibition at 1 µM [9]: 67% | % Inhibition at 1 µM [10]: 77% | % Inhibition at 1 µM [11]: 55% | % Inhibition at 1 µM [12]: 69%
B3: metallopeptide 3-9 (peptide)
peptide: YV[Nle]GCH[dF]RWDRF-NH2
modifications: also: oxorhenium(V) N3S1 chelate: C5 SG + backbone N of X3, G4, C5, bridge at 5 via Re(V)=O, other end not in the chain

% Inhibition at 1 µM [9]: 92% | % Inhibition at 1 µM [10]: 95% | % Inhibition at 1 µM [11]: 82% | % Inhibition at 1 µM [12]: 85%
B4: metallopeptide 3-11 (peptide)
peptide: YVC[Nle]GH[dF]RWDRF-NH2
modifications: bridge (positions not given here); not fully specified (bridges); printed as Tyr-Val-Cys-Nle-Gly-His-D-Phe-Arg-Trp-Asp-Arg-Phe-NH2.; also: oxorhenium(V) N3S1 complex

% Inhibition at 1 µM [9]: 31% | % Inhibition at 1 µM [10]: 52% | % Inhibition at 1 µM [11]: 31% | % Inhibition at 1 µM [12]: 20%
B5: metallopeptide 3-6 (peptide)
peptide: YV[Nle]GH[dF]CRWDRF-NH2
modifications: not fully specified (bridges); printed as Tyr-Val-Nle-Gly-His-D-Phe-Cys-Arg-Trp-Asp-Arg-Phe-NH2; also: bridge at 7 via Re(V)=O, other end not in the chain

% Inhibition at 1 µM [9]: 99% | % Inhibition at 1 µM [10]: 99% | % Inhibition at 1 µM [11]: 99% | % Inhibition at 1 µM [12]: 95%
B6: metallopeptide 3-3 (peptide)
peptide: YV[Nle]GH[dF]RWDCRF-NH2
modifications: not fully specified (bridges); printed as Tyr-Val-Nle-Gly-His-D-Phe-Arg-Trp-Asp-Cys-Arg-Phe-NH2; also: oxorhenium(V) N3S1 chelate (backbone N of W8, D9, C10 and C10 S)

% Inhibition at 1 µM [5]: 18% | % Inhibition at 1 µM [6]: 95% | % Inhibition at 1 µM [7]: 6% | % Inhibition at 1 µM [8]: 21%
Binder: Ac-SYSC[Nle]EHFRWGKPV-NH2 (also: oxorhenium(V) N3S1 chelate at Cys4) [metallopeptide 1-11]

% Inhibition at 1 µM [5]: 15% | % Inhibition at 1 µM [6]: 96% | % Inhibition at 1 µM [7]: 19% | % Inhibition at 1 µM [8]: 26%
Binder: Ac-SYCS[Nle]EHFRWGKPV-NH2 (also: oxorhenium(V) N3S1 chelate at Cys3) [metallopeptide 1-12]

% Inhibition at 1 µM [9]: 81% | % Inhibition at 1 µM [10]: 83% | % Inhibition at 1 µM [11]: 33% | % Inhibition at 1 µM [12]: 45%
B7: metallopeptide 3-5 (peptide)
peptide: YV[Nle]GH[dF]RCWDRF-NH2
modifications: not fully specified (bridges); printed as Tyr-Val-Nle-Gly-His-D-Phe-Arg-Cys-Trp-Asp-Arg-Phe-NH2; also: bridge at 8 via Re(V)=O, other end not in the chain

% Inhibition at 1 µM [9]: 100% | % Inhibition at 1 µM [10]: 98% | % Inhibition at 1 µM [11]: 94% | % Inhibition at 1 µM [12]: 88%
B8: metallopeptide 3-4 (peptide)
peptide: YV[Nle]GH[dF]RWCDRF-NH2
modifications: not fully specified (bridges); printed as Tyr-Val-Nle-Gly-His-D-Phe-Arg-Trp-Cys-Asp-Arg-Phe-NH2; also: oxorhenium(V) N3S1 chelate (backbone N of R7, W8, C9 and C9 S)

% Inhibition at 1 µM [9]: 102% | % Inhibition at 1 µM [10]: 95% | % Inhibition at 1 µM [11]: 98% | % Inhibition at 1 µM [12]: 96%
Binder: YVXGHFRWDRFC (Nle 3 (X in letters); D-Phe 6; C-terminal amide; Re complexed at Cys 12) [metallopeptide 3-1]
